{
  "source": "paper doi:10.1101/2023.02.01.526621",
  "about": "(bioRxiv, 2023)",
  "binders": {"B1": {"name": "His-tagged full-length CALCIUM-DEPENDENT PROTEIN KINASE32 (His-CPK32) (enzyme, Arabidopsis thaliana, UniProt Q6NLQ6 1-538, looked up)", "chain": "MGNCCGTAGSLAQNDNKPKKGRKKQNPFSIDYGLHHGGGDGGGRPLKLIVLNDPTGREIESKYTLGRELGRGEFGVTYLCTDKETDDVFACKSILKKKLRTAVDIEDVRREVEIMRHMPEHPNVVTLKETYEDEHAVHLVMELCEGGELFDRIVARGHYTERAAAAVTKTIMEVVQVCHKHGVMHRDLKPENFLFGNKKETAPLKAIDFGLSVFFKPGERFNEIVGSPYYMAPEVLKRNYGPEVDIWSAGVILYILLCGVPPFWAETEQGVAQAIIRSVLDFRRDPWPKVSENAKDLIRKMLDPDQKRRLTAQQVLDHPWLQNAKTAPNVSLGETVRARLKQFTVMNKLKKRALRVIAEHLSDEEASGIREGFQIMDTSQRGKINIDELKIGLQKLGHAIPQDDLQILMDAGDIDRDGYLDCDEFIAISVHLRKMGNDEHLKKAFAFFDQNNNGYIEIEELREALSDELGTSEEVVDAIIRDVDTDKDGRISYEEFVTMMKTGTDWRKASRQYSRERFNSISLKLMQDASLQVNGDTR"}},
  "target": "T1, GST-CESA3CD (catalytic domain of cellulose synthase CESA3 fused to GST) (Arabidopsis thaliana, UniProt Q941L0 305-843)",
  "T1 sequence (looked up)": "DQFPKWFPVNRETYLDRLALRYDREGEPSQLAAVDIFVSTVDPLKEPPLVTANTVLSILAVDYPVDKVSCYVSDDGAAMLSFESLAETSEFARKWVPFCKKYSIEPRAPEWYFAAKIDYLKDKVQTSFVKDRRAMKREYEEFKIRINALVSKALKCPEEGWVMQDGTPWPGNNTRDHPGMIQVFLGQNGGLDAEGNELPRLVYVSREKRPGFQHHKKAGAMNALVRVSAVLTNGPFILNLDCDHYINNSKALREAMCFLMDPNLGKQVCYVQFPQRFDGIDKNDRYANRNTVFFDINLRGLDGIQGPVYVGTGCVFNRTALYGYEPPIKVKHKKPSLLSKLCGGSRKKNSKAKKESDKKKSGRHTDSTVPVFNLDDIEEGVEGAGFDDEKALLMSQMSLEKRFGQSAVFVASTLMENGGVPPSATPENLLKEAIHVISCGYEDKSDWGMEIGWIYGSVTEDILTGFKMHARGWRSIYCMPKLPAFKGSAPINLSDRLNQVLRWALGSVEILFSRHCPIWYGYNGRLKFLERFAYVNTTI",
  "experiment": "pull-down",
  "data": [
    {"binder": "B1", "values": [
      {"measurement": "binding result", "value": "binds"}
    ]}
  ]
}
